In the supplement of paper PMC10567573:
± gives the standard deviation.

Assay: protein stability index of a GFP-peptide fusion (GPS, HEK-293T) (PSI 1-6); higher = more stable
[1] = treatment: DMSO, c terminus: a fixed tail appended
[2] = treatment: MLN4924 1 uM, 8 h, c terminus: a fixed tail appended
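Further: 24-mer peptide tiles fused after GFP, lentivirally expressed, FACS-sorted into six equal bins by GFP/DsRed ratio, decoded by Illumina sequencing, PSI is the read-weighted mean bin number.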

Sequence	protein stability index [1]	protein stability index [2]	protein stability index (treatment: DMSO, c terminus: native)	protein stability index (treatment: MLN4924 1 uM, 8 h, c terminus: native)
DELIPEYLNFIRGVVDSEDLPLNI [HSP90AB1]	3.22 ± 0.38	3.3 ± 0.47		
DERTHRSDRPFKCNQCGKCFIQSS [ZNF8]	2.98 ± 0.42	3.25 ± 0.47		
DESGGPDNEDYPLFRELWRYHFAT [KLHDC10]	2.95 ± 0.29	2.99 ± 0.27		
DFQPREEAMLYHNQTAELRELLEF [P3H4]	3.96 ± 0.28	4.01 ± 0.16		
DFTLSKTNMARIREIMEKFGKQPV [CPXM2]	2.71 ± 0.088	2.62 ± 0.33		
DGPGGNLAHAFQPGPGIGGDAHFD [MMP1]	4.95 ± 0.3	4.9 ± 0.14		
DHSSRELSKILAKLERLKQQNEDL [FUT8]	3.89 ± 0.12	4.03 ± 0.16		
DHWNNEKERILLVTDKTLLICKYD [TPRG1]	2.18 ± 0.32	2.47 ± 0.15		
DIDLSLYIPRDVDETGITVASLER [ZC3H15]	3.19 ± 0.28	3.5 ± 0.23		
DIETACKLLNITADPMDWSPSNVQ [SPDEF]	2.75 ± 0.42	2.77 ± 0.17		
DIGAVYSHRPNQHNTVKLGAFQAQ [PRIM1]	3.11 ± 0.41	3.19 ± 0.45		
DIHITARIESDLTLESLSDEEIHP [DRICH1]	4.85 ± 0.2	4.91 ± 0.19		
DIHVGLRGVPLLEWETEVEMDKLR [CLCN6]	3.98 ± 0.23	3.96 ± 0.41		
DIISTVEFNHTGELLATGDKGGRV [PPP2R2B]	3.16 ± 0.43	3.25 ± 0.5		
DILPIHPPSGNSDLDPDAQNPML [BTBD10]			5.46 ± 0.17	5.21 ± 0.22
DKTDISSGRARQQDEEMLELPAPA [MLH1]	5.42 ± 0.36			
DKVIELHKSHRGMTPAEAEMHFLE [EPB41L3]	4.51 ± 0.22	4.38 ± 0.14		
DLFVENMPGFPDNIRPSSSGGYWV [APMAP]	2.32 ± 0.26	2.49 ± 0.34		

Sequence	protein stability index [1]	protein stability index [2]	protein stability index (treatment: DMSO, c terminus: native)	protein stability index (treatment: MLN4924 1 uM, 8 h, c terminus: native)
DLGGSIYANLALSGLIEIQSYPLC [SLC22A15]	3.02 ± 0.72	2.63 ± 0.76		
DLGNACWVHKHFTEDIQTRQYRSI [SRPK2]	2.61 ± 0.23	2.72 ± 0.11		
DLPPPPADPVLDLPLPPPPPEPLS [APBB1IP]	5.39 ± 0.3	5.33 ± 0.18		
DLSMDGLFGTIAYLPPERIREKSR [RIPK4]	3.58 ± 0.27	3.66 ± 0.34		
DLSPLLGFWQLPPPATQNTFGNST [PLAGL1]	2.36 ± 0.43	2.5 ± 0.23		
DNLLAAADKYALERLKVMCEEALC [SPOPL]	2.75 ± 0.32	2.78 ± 0.15		
DPCVISQEIMEKYNIKLKWTNQQK [CFHR2]	3.19 ± 0.22	2.92 ± 0.22		
DPMLDFYSDKNAKLTKESYPVVVA [TENT5D]	3.77 ± 0.26	3.85 ± 0.23		
DQENFQGKRMEFTSSCPNVSERSF [CRYBA1]	4.49 ± 0.12	4.46 ± 0.24		
DQFSALGLDPCLLEDELDKSVQGT [SLC6A17]	5.18 ± 0.14	5.19 ± 0.14		
DQNTVVTRQLSEENANLQEYVEKE [MTUS2]	5.41 ± 0.25	5.51 ± 0.21		
DQTGKEVADRWYSEIKNYNFQQPG [GLIPR2]	4.15 ± 0.34	3.88 ± 0.31		
DRAVNDYPSLYYPEMYILKGGYKE [CDC25B]	2.67 ± 0.25	2.85 ± 0.46		
DRKLHSRPRKLYKHSSTSSRIAKG [BTBD10]	3.81 ± 0.15	3.79 ± 0.25		
DRLVVTECQLTHSHPACPLEFAYY [ZSWIM9]	2.53 ± 0.31	2.53 ± 0.32		
DRVLRAMLKAEETCAPSVSYFKCV [CCND1]	2.29 ± 0.25	2.35 ± 0.4		
DSDVPEQRDSKCKVKWTHEEDEQL [MYBL2]	5.44 ± 0.32	4.94 ± 0.76		
DSVLKGMQAASSKMVSAEISENRK [SDE2]	4.31 ± 0.23	4.68 ± 0.33		
